In patent US20150291692A1 (INNATE PHARMA, published 2015):

How the values were obtained:
[1] = molecular target: T1, KIR3DL2 recombinant protein (R&D Systems) (human, UniProt P43630 28-340); assay: SCK kinetic method
T1 construct: Bought protein; also called rec KIR3DL2; recombinant KIR3DL2-Fc fusion protein; not shown: Fc part of the bought fusion protein; not described

[2] = molecular target: T1, KIR3DL2 recombinant protein (R&D …); assay: regular kinetic method
[3] = molecular target: T2, KIR3DL2 at the surface of HUT78 Sezary Syndrome cell line (human, UniProt P43630 22-455); assay: flow cytometry competition on HUT78 cells; naked antibody titrated against 15C11-PE (5 µg/ml)
T2 construct: whole, on cells; Two alleles are expressed

[4] = molecular target: T3, KIR3DL2 mutant M11A5 (V147A;Q149S) (human, UniProt P43630 22-455); assay: flow cytometry on HEK-293T cells transfected with the mutant; + no significant loss of binding, ± decrease
T3 construct: Expressed on transfected HEK-293T cells; also called Number 28 (11A5)

[5] = molecular target: T4, KIR3DL2 mutant M11A6 (I150A;M128A) (human, UniProt P43630 22-455); assay: as above
T4 construct: Expressed on transfected HEK-293T cells; also called Number 29 (11A6)

[6] = molecular target: T5, KIR3DL2 mutant M7 (L113V;T118R) (human, UniProt P43630 22-455); assay: as above
T5 construct: Expressed on transfected HEK-293T cells; also called Number 7

[7] = molecular target: T6, KIR3DL2 mutant M11A3 (N99S;H100S;Q184A) (human, UniProt P43630 22-455); assay: as above
T6 construct: Expressed on transfected HEK-293T cells; also called Number 26 (11A3)

[8] = molecular target: T7, KIR3DL2 mutant M10 (R136K;E141K) (human, UniProt P43630 22-455); assay: as above
T7 construct: Expressed on transfected HEK-293T cells; also called Number 10

[9] = molecular target: T8, KIR3DL2 mutant M9 (L164M;P166L;V167A) (human, UniProt P43630 22-455); assay: as above
T8 construct: Expressed on transfected HEK-293T cells; also called Number 9

[10] = molecular target: T1, KIR3DL2 recombinant protein (R&D …); assay: SPR (Biacore T100), antibody injected over immobilised recombinant KIR3DL2, bivalent affinity, pH 7.2
[11] = molecular target: T9, KIR3DL2 on fresh Sezary Syndrome cells of patients (human, UniProt P43630 22-455); assay: flow cytometry of whole blood of a Sezary Syndrome patient, antibody + GaM-PE against CD4; upper gate (CD4+ KIR3DL2+ leukemic Sezary cells)
T9 construct: whole, on cells; also called SS cells

[12] = molecular target: T10, NK cells, including normal KIR3DL2+ NK cells (Homo sapiens, UniProt P43630); assay: flow cytometry of whole blood of a Sezary Syndrome patient, antibody + GaM-PE against CD4; lower gate (CD4-negative NK cells)
T10 construct: full-length receptor on the cell surface; also called gate NK GaM PE+; KIR3DL2 on CD4-negative NK cells in the blood of the Sezary Syndrome patient

[13] = molecular target: T11, KIR3DL1 expressed on cells (human, UniProt P43629 22-444); assay: flow cytometry on HEK KIR3DL1 cells (row HEK-KIR3DL1)
T11 construct: also called HEK-293T/KIR3DL1

[14] = molecular target: T12, KIR3DL2 mutant M8 + 11 (V127I;P179T;S181T) (human, UniProt P43630 22-455); assay: flow cytometry on HEK-293T cells transfected with the mutant; - means substantially complete loss of binding
T12 construct: Expressed on transfected HEK-293T cells; also called Number 23 (8 + 11)

[15] = molecular target: T13, KIR3DL2 mutant M11 (P179T;S181T) (human, UniProt P43630 22-455); assay: as above
T13 construct: Expressed on transfected HEK-293T cells; also called Number 11; mutant 11

[16] = molecular target: T14, KIR3DL2 mutant M11A4 (E130S;H131S;R145S) (human, UniProt P43630 22-455); assay: as above
T14 construct: Expressed on transfected HEK-293T cells; also called Number 27 (11A4)
T14 sequence (P43630 22-455 E151S/H152S/R166S): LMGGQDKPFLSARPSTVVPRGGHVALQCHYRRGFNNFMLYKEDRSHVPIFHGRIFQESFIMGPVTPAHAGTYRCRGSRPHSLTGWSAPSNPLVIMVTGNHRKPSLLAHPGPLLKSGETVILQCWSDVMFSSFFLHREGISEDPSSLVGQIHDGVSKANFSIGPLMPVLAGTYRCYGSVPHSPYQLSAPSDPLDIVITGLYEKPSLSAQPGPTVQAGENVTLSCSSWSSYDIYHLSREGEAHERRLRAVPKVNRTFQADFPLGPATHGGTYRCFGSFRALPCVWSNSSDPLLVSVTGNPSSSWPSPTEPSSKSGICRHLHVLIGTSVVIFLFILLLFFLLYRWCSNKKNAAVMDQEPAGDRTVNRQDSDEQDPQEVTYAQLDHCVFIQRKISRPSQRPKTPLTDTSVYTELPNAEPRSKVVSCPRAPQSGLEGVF

T1 sequence (P43630 28-340 A108T): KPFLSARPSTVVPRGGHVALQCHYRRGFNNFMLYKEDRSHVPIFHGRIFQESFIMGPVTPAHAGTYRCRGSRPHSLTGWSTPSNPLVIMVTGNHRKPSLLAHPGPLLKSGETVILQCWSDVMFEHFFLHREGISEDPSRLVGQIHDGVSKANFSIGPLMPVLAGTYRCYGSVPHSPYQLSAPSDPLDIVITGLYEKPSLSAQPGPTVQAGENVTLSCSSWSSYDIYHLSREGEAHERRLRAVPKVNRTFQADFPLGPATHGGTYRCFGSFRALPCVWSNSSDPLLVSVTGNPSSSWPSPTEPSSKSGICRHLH
T9 sequence (P43630 22-455): as the sequence (P43630 22-455 E151S/H152S/R166S) above, with S130E, S131H, S145R counted along it
T10 sequence (P43630 22-455 limits assumed): as the sequence (P43630 22-455 E151S/H152S/R166S) above, with S130E, S131H, S145R counted along it
T11 sequence (P43629 22-444 limits assumed): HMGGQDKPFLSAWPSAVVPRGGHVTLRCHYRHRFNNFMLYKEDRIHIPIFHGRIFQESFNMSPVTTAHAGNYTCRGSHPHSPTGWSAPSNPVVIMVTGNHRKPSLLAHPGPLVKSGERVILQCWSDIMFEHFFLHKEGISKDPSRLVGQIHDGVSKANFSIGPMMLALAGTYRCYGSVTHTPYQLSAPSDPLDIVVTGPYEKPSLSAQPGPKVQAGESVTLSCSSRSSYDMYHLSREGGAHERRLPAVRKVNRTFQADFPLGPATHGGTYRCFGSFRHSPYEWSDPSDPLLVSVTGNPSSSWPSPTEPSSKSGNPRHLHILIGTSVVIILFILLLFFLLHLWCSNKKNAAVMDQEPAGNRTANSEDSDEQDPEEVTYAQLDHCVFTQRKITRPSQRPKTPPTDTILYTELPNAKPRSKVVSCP
T3 sequence (P43630 22-455 V168A/Q170S): as the sequence (P43630 22-455 E151S/H152S/R166S) above, with S130E, S131H, S145R, V147A, Q149S counted along it
T5 sequence (P43630 22-455 L134V/T139R): as the sequence (P43630 22-455 E151S/H152S/R166S) above, with L113V, T118R, S130E, S131H, S145R counted along it
T6 sequence (P43630 22-455 N120S/H121S/Q205A): as the sequence (P43630 22-455 E151S/H152S/R166S) above, with N99S, H100S, S130E, S131H, S145R, Q184A counted along it
T13 sequence (P43630 22-455 P200T/S202T): as the sequence (P43630 22-455 E151S/H152S/R166S) above, with S130E, S131H, S145R, P179T, S181T counted along it
T7 sequence (P43630 22-455 R157K/E162K): as the sequence (P43630 22-455 E151S/H152S/R166S) above, with S130E, S131H, R136K, E141K, S145R counted along it
T8 sequence (P43630 22-455 L185M/P187L/V188A): as the sequence (P43630 22-455 E151S/H152S/R166S) above, with S130E, S131H, S145R, L164M, P166L, V167A counted along it
T12 sequence (P43630 22-455 V148I/P200T/S202T): as the sequence (P43630 22-455 E151S/H152S/R166S) above, with V127I, S130E, S131H, S145R, P179T, S181T counted along it
T4 sequence (P43630 22-455 M149A/I171A): as the sequence (P43630 22-455 E151S/H152S/R166S) above, with M128A, S130E, S131H, S145R, I150A counted along it
T2 sequence (P43630 22-455): as the sequence (P43630 22-455 E151S/H152S/R166S) above, with S130E, S131H, S145R counted along it

Binder	Kd [1] [pM]	koff [1] [s⁻¹]	Kd [2] [pM]	koff [2] [s⁻¹]	also measured
chimeric 15C11 of human IgG1 Fc isotype (antibody, V domains shown, Human-mouse chimeric antibody with the variable regions of murine 15C11; also called chim15C11; Chim15C11) VH: EVKLEESGGGLVQPGGSMKLSCAASGFTFSDAWMDWVRQSPEKGLEWVAEIRSKANNHATYYAESVKGRFTISRDDSKSSVYLRMNSLRAEDTGIYYCTGGYYPVYWGQGTLVTVSA VL: DIQMTQSPSSLSASLGGKVTITCKASQDINKNIAWYQHKPGKGPRLLIHYTSTLQPGFPSRFSGSGSGRDYSFSISNLEPEDLATYYCLQYDNLLTFGGGTKLEIK	220	0.000108	680	0.00029	–
antibody 19H12 (antibody, mouse IgG2b, V domains shown, also called mo19H12) VH: QIQLVQSGPELKKPGETVKISCKASGYTFTNFGMNWVKQAPGKGLKWMGWINTYTGEPTYADDFKGRFAFSLETSASTAYLQINNLKNEDMATYFCARNGNFGYYFDYWGQGTTLTVSS VL: DVLMTQTPLSLPVSLGDQASFSCRSSQNIVHSNGNTYLEWYLQKPGQSPSLLIYKVSNRFSGVPDRFSGSGSGTDFTLKITRVEAEDLGVYYCFQGSHVPFTFGSGTKLEIK	–	–	–	–	IC50 (read off the curve) [3]: ~0.4 µg/mL; binding result [4]: binds; binding result [5]: binds; binding result [6]: binds; binding result [7]: binds; binding result [8]: binds; binding result [9]: binds; Kd [10]: 490 pM; % of cells in gate CD4 GaM PE+ [11]: 7.5%; % of cells in gate NK GaM PE+ [12]: 14.9%; binding result [13]: no binding; binding result [14]: no binding; binding result [15]: no binding; binding result [16]: no binding
antibody 22B2 (antibody, mouse IgG1, V domains shown) VH: QIQLVQSGPELKKPGETVKISCKASGYTFTNYGMNWVKQAPGKGLKWMGWINTYTGEPTYADDFKGRFAFSLETSATTAYLQINNLKNEDMATYFCSRSFGSTYGDYWGQGTTLTVSS VL: DVLMTQTPLSLPVSLGDQASISCRSSQTIVHSNGNTYLEWYLQKPGQSPKLLIYKVSNRFSGVPDRFSGSGSGTDFTLKISRVEAEDLGVYYCFQGSHVPWTFGGGTKLEIK	–	–	–	–	Kd [10]: 2200 pM; % of cells in gate CD4 GaM PE+ [11]: 7.7%; % of cells in gate NK GaM PE+ [12]: 11.6%; binding result [13]: no binding
Hum23-K32-15C11 (antibody, V domains shown, also called H2/L3) VH: EVQLVESGGGLVQPGGSLRLSCAASGFTFSDAWMDWVRQAPGKGLEWVGEIRSKANNHATYYAASVKGRFTISRDDSKNSLYLQMNSLKTEDTAVYYCTGGYYPVYWGQGTLVTVSS VL: DIQMTQSPSSLSASVGDRVTITCKASQDINKNIAWYQHKPGKAPKLLIHYTSTLQPGVPSRFSGSGSGRDYTFTISSLQPEDIATYYCLQYDNLLTFGGGTKVEIK	500	0.00014	1240	0.000329	–
Hum32-K32-15C11 (antibody, V domains shown, also called H3/L2) VH: EVQLVESGGGLVQPGGSLRLSCAASGFTFSDAWMDWVRQAPGKGLEWVAEIRSKANNHATYYAASVKGRFTISRDDSKNSVYLQMNSLKTEDTAVYYCTGGYYPVYWGQGTLVTVSS VL: DIQMTQSPSSLSASVGDRVTITCKASQDINKNIAWYQHKPGKAPKLLIHYTSTLQPGVPSRFSGSGSGTDFTFTISSLQPEDIATYYCLQYDNLLTFGGGTKVEIK	510	0.000104	1290	0.00025	–
Hum12-K32-15C11 (antibody, V domains shown, also called H1/L2; H1-L2) VH: EVQLVESGGGLVQPGGSLRLSCAASGFTFSDAWMDWVRQAPGKGLEWVGRIRSKANNHATAYAASVKGRFTISRDDSKNSLYLQMNSLKTEDTAVYYCTGGYYPVYWGQGTLVTVSS VL: DIQMTQSPSSLSASVGDRVTITCKASQDINKNIAWYQHKPGKAPKLLIHYTSTLQPGVPSRFSGSGSGTDFTFTISSLQPEDIATYYCLQYDNLLTFGGGTKVEIK	1630	0.000109	5610	0.00132	–
Hum33-K32-15C11 (antibody, V domains shown, also called H3/L3; H3-L3) VH: EVQLVESGGGLVQPGGSLRLSCAASGFTFSDAWMDWVRQAPGKGLEWVAEIRSKANNHATYYAASVKGRFTISRDDSKNSVYLQMNSLKTEDTAVYYCTGGYYPVYWGQGTLVTVSS VL: DIQMTQSPSSLSASVGDRVTITCKASQDINKNIAWYQHKPGKAPKLLIHYTSTLQPGVPSRFSGSGSGRDYTFTISSLQPEDIATYYCLQYDNLLTFGGGTKVEIK	330	7.8e-05	780	0.00018	–
Hum22-K32-15C11 (antibody, V domains shown, also called H2/L2) VH: EVQLVESGGGLVQPGGSLRLSCAASGFTFSDAWMDWVRQAPGKGLEWVGEIRSKANNHATYYAASVKGRFTISRDDSKNSLYLQMNSLKTEDTAVYYCTGGYYPVYWGQGTLVTVSS VL: DIQMTQSPSSLSASVGDRVTITCKASQDINKNIAWYQHKPGKAPKLLIHYTSTLQPGVPSRFSGSGSGTDFTFTISSLQPEDIATYYCLQYDNLLTFGGGTKVEIK	650	0.000156	1740	0.000385	–
Hum13-K32-15C11 (antibody, V domains shown, also called H1/L3) VH: EVQLVESGGGLVQPGGSLRLSCAASGFTFSDAWMDWVRQAPGKGLEWVGRIRSKANNHATAYAASVKGRFTISRDDSKNSLYLQMNSLKTEDTAVYYCTGGYYPVYWGQGTLVTVSS VL: DIQMTQSPSSLSASVGDRVTITCKASQDINKNIAWYQHKPGKAPKLLIHYTSTLQPGVPSRFSGSGSGRDYTFTISSLQPEDIATYYCLQYDNLLTFGGGTKVEIK	1130	0.000286	4590	0.00105	–
